{"source": "patent US20160090425", "proteins": {"B1": {"name": "human C1s enzyme purified from human plasma (Complement Technology Inc., Cat # A103) (protein)", "chain": "EPTMYGEILSPNYPQAYPSEVEKSWDIEVPEGYGIHLYFTHLDIELSENCAYDSVQIISGDTEEGRLCGQRSSNNPHSPIVEEFQVPYNKLQVIFKSDFSNEERFTGFAAYYVATDINECTDFVDVPCSHFCNNFIGGYFCSCPPEYFLHDDMKNCGVNCSGDVFTALIGEIASPNYPKPYPENSRCEYQIRLEKGFQVVVTLRREDFDVEAADSAGNCLDSLVFVAGDRQFGPYCGHGFPGPLNIETKSNALDIIFQTDLTGQKKGWKLRYHGDPMPCPKEDTPNSVWEPAKAKYVFRDVVQITCLDGFEVVEGRVGATSFYSTCQSNGKWSNSKLKCQPVDCGIPESIENGKVEDPESTLFGSVIRYTCEEPYYYMENGGGGEYHCAGNGSWVNEVLGPELPKCVPVCGVPREPFEEKQRIIGGSDADIKNFPWQVFFDNPWAGGALINEYWVLTAAHVVEGNREPTMYVGSTSVQTSRLAKSKMLTPEHVFIHPGWKLLEVPEGRTNFDNDIALVRLKDPVKMGPTVSPICLPGTSSDYNLMDGDLGLISGWGRTEKRDRAVRLKAARLPVAPLRKCKEVKVEKPTADAEAYVFTPNMICAGGEKGMDSCKGDSGGAFAVQDPNDKTKFYAAGLVSWGPQCGTYGLYTRVKNYVDWIMKTMQENSTPRED"}}, "target": "six other anti-C1s binding antibodies"}
{"protein": "B1", "values": [{"measurement": "C1s-mediated C4 α-chain cleavage (SDS gel), antibody at approximately 10-fold molar excess", "result": "six other anti-C1s binding antibodies, including the C1s binding antibody 3F8 (see FIG. 1, Example 2), did not show inhibitory activity"}]}
